Experimental data reported in patent US20140315986A1.

Target: IL-6R (UniProt P08887)
Assay: cell-based or functional assay

Sequence of IL-6R (P08887 20-468 limits assumed): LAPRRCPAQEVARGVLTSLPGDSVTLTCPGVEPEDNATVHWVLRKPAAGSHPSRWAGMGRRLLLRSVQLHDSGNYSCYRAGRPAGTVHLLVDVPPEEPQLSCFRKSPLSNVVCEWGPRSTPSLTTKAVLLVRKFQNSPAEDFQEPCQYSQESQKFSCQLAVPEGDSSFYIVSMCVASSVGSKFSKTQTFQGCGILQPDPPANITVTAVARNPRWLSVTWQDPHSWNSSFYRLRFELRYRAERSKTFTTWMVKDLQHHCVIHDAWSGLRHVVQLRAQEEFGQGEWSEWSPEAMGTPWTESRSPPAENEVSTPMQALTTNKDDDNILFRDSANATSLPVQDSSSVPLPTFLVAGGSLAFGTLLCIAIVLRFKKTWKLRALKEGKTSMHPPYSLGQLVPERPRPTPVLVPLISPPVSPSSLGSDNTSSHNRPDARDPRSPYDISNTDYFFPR

Relative IL-6 Inhibition (%) of IL-6-dependent U266B1 cell proliferation, Tocilizumab at 1 µg/mL (6.7 × 10^-9 M): 15.1% | Relative IL-6 Inhibition (%) of IL-6-dependent U266B1 cell proliferation, Tocilizumab at 10 µg/mL (6.7 × 10^-8 M): 60.7% | Relative IL-6 Inhibition (%) of IL-6-dependent U266B1 cell proliferation, Tocilizumab at 100 µg/mL (6.7 × 10^-7 M): 57%
Substance: Tocilizumab (antibody)
